Measured values: paper PMC9394431 (Cell, 2022)

Molecular target: T1, α1β2γ2 GABAA receptor (Homo sapiens)
T1 chain 1: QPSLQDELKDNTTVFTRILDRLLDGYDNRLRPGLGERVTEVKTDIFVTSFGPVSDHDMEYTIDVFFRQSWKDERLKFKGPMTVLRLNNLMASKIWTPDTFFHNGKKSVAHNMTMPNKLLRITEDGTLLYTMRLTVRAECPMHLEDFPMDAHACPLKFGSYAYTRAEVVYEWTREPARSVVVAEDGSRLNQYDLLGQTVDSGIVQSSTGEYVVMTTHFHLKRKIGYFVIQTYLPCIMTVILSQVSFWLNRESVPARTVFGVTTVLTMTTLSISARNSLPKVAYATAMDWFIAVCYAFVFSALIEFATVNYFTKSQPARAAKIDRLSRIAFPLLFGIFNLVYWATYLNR
T1 chain 2: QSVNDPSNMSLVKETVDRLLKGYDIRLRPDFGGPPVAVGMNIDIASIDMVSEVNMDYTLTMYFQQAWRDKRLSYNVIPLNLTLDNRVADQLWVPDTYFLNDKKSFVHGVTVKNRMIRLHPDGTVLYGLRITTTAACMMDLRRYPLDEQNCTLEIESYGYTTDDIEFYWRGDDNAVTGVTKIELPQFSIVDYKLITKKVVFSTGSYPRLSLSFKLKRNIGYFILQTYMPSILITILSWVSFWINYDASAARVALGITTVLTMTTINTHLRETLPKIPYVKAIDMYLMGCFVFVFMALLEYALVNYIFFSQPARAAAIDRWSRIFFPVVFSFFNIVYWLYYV
T1 chain 3: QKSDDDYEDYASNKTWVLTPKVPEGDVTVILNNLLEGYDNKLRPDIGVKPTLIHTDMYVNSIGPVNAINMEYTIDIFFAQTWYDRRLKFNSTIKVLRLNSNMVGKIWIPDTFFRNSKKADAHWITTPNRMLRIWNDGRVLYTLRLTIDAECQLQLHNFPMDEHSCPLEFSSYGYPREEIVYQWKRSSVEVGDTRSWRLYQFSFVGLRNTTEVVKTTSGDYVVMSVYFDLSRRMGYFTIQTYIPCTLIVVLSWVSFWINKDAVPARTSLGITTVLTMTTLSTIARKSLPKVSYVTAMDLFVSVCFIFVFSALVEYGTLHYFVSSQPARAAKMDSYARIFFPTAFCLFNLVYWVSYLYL
Assay: SEC

B1: Fab175 (Fab, V domains shown)
VH: EVQLLESGEGLVQPGGSLRLSCAASGFTFKTYAMSWVRQAPGKGLEWVSAISGSGASTYYADFVEGRFTISRDNSKNTLYLQMNSLRAEDTAVYYCAKEPPAMVWFGGGYFDYWGQGTLVTVSS
VL: EIVLTQSPATLSLSPGERATLSCRASQSVSSYLAWYQQKPGQAPRLLIYDASNRATGIPARFSGSGSGTDFTLTISSLEPEDFAVYYCQQRSNWPPYSFGQGTKLEIK
stoichiometry N: 1 Fab per receptor
